Substrate in this series: O=P(O)(O)O
Nature of the series: cells, lysate or membranes. The conditions noted are these: whole-cell transport in C. crescentus delta-pstS expressing pitA, 0.1-20 µM phosphate, 37 °C, labelled compound (33P tracer).

B1: PitA (Escherichia coli K-12) (protein)
chain: MLHLFAGLDLHTGLLLLLALAFVLFYEAINGFHDTANAVATVIYTRAMRSQLAVVMAAVFNFLGVLLGGLSVAYAIVHMLPTDLLLNMGSSHGLAMVFSMLLAAIIWNLGTWYFGLPASSSHTLIGAIIGIGLTNALMTGTSVVDALNIPKVLSIFGSLIVSPIVGLVFAGGLIFLLRRYWSGTKKRARIHLTPAEREKKDGKKKPPFWTRIALILSAIGVAFSHGANDGQKGIGLVMLVLIGVAPAGFVVNMNATGYEITRTRDAINNVEAYFEQHPALLKQATGADQLVPAPEAGATQPAEFHCHPSNTINALNRLKGMLTTDVESYDKLSLDQRSQMRRIMLCVSDTIDKVVKMPGVSADDQRLLKKLKSDMLSTIEYAPVWIIMAVALALGIGTMIGWRRVATTIGEKIGKKGMTYAQGMSAQMTAAVSIGLASYTGMPVSTTHVLSSSVAGTMVVDGGGLQRKTVTSILMAWVFTLPAAVLLSGGLYWLSLQFL
Regarding B1, the Km is 1.9 µM.

These data come from article PMC11208175.
